Where two headings read alike, the source gives them in different places.
T1: human PVRIG (AcroBiosystems, Cat NO. PVG-H52H4) (human, UniProt Q6DKI7 41-171, limits assumed)
T1 construct: Bought protein with His tag; also called human PVRIG-his; human PVRIG protein
T1 sequence (looked up): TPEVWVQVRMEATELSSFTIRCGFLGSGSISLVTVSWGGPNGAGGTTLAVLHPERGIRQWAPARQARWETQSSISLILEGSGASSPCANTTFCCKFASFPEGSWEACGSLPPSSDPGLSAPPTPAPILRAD

T2: cynomolgus monkey PVRIG (Novoprotein, Cat NO. C09B) (cynomolgus monkey, UniProt A0A2K5WVV8 41-171)
T2 construct: Bought protein; construct not described; also called cynomolgus monkey PVRIG protein
T2 sequence: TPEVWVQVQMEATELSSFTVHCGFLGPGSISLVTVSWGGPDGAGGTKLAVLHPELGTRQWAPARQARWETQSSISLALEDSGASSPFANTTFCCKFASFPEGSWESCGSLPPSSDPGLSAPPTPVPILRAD

T3: human PVRIG-mFc protein (Acro, PVG-H5253) (human, UniProt Q6DKI7 41-171, limits assumed)
T3 construct: extracellular domain; Bought protein; also called PVRIG-ECD-mFc; not shown: mouse Fc tag of the bought protein
T3 sequence (looked up): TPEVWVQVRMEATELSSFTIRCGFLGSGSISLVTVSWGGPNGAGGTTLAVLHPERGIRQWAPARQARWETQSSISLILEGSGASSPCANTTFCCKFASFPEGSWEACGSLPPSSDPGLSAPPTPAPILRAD


Key:
[1] = target: T1, human PVRIG (AcroBiosystems, Cat NO. …); assay: ELISA, coated human PVRIG
Method: (§1) The ELISA plate was pre-coated with 50 μL/well of 1.0 μg/mL human PVRIG (AcroBiosystems, Cat NO. PVG-H52H4) or 50 μL/well of 0.5 μg/mL cynomolgus monkey PVRIG (Novoprotein, Cat NO. C09B). The tested antibodies were serially diluted (initial concentration 13 nM, 3-fold serial dilution, 12 concentration points), added into the plate (50 μL/well) and incubated at 37° C. for 2.0 hours. After washing the plate, the Goat anti-human IgG Fc-HRP (Merck, Cat NO. AP113P) working solution (dilution ratio 1:5000, 50 μL/well) were added into wells and incubated at 37° C. for 1.0 hour. A HRP substrate, TMB (KPL, Cat NO. 5120-0077) was added into wells after washing the plate again and incubated at 37° C. for 10 minutes for color development. After adding a termination solution to terminate the reaction, the absorbance value was read by a microplate reader (PE, Ensight-HH3400). An antibody binding curve was drawn with molar concentration of antibodies as the abscissa and the corresponding OD value as the ordinate. The EC50 value was calculated by using a Four Parameter Logistic Fit (GraphPadPrism9). The smaller the EC50 value, the stronger the ability of the antibodies binds to human or cynomolgus monkey PVRIG. The positive control antibodies are COM701-hIgG1, PVRIG-A50-H1b and PVRIG-A105-H1; and the negative control antibodies are anti-Fluorescein-hIgG1 (in house). The binding results of the 4 humanized bispecific antibodies to human PVRIG protein are shown in FIG. 41 and Tables 40 and 41, and the binding results to cynomolgus monkey PVRIG are shown in FIG. 42 and Tables 40 and 41. […] The binding of LC-BsAb-002 and LC-BsAb-006 to human PVRIG protein is slightly weaker than that of the corresponding monoclonal antibody (PVRIG-A50-H1b) and the positive control (COM701-hIgG1).

[2] = target: T2, cynomolgus monkey PVRIG (Novoprotein, …); assay: ELISA, coated cynomolgus PVRIG
Method: as §1

[3] = target: T3, human PVRIG-mFc protein (Acro, …); assay: HTRF competition, PVRIG-mFc with Bio-CD112-His as competitor
Method: (§2) PVRIG-mFc (ACRO Biosystems, Cat NO. PVG-H5253) and Bio-CD112-His (Sino Biological, Cat NO. 10005-H08H) were diluted to 0.5 μg/mL, respectively. Streptavidin-Tb cryptate (Cisbio) and PAb anti mouse IgG-XL665 (Cisbio) were diluted to 20 μg/mL and 0.8 μg/mL, respectively. The tested antibodies were diluted from the initial concentration of 120 nM, by 3-fold serial dilution for 12 concentration points. The diluted PVRIG-mFc, Bio-CD112-His, Streptavidin-Tb Crytate and PAb anti mouse IgG-XL665 were mixed at 1:1:1:1, and added into a 384-well plate (PE, Cat NO. 6007299), 10 μL/well. 10 μL/well of serially diluted antibodies was added into wells, centrifuged at 1500 rpm for 30s, and incubated at 37° C. for 1 hour. The plate was read on the microplate reader (PE, Envision2105) with wavelengths of 665 nm and 620 nm. […] A Four Parameter Logistic Fit was performed with the molar concentration of the antibodies as the abscissa and Ratio as the ordinate to calculate IC50. The smaller the IC50, the better the effect of the antibody block the binding of PVRIG to PVRL2. The positive controls in this experiment are COM701-hIgG1, PVRIG-A50-H1b and PVRIG-A105-H1; and the negative control antibody is anti-Fluorescein-hIgG1 (in house). The effect of 4 humanized bispecific antibodies blocking the binding of PVRIG to PVRL2 is shown in FIG. 51 and Tables 44 and 45. […] The blocking effect of LC-BsAb-002 is better than its corresponding monoclonal antibody (PVRIG-A50-H1b) and the positive control (COM701-hIgG1). The blocking effect of LC-BsAb-006 is better than its corresponding monoclonal antibody (PVRIG-A50-H1b), but slightly weaker than the positive control (COM701-hIgG1). The blocking effects of LC-BsAb-009 and LC-BsAb-010 are not as good as their corresponding monoclonal antibodies (PVRIG-A105-H1) and the positive control (COM701-hIgG1).

[4] = target: T3, human PVRIG-mFc protein (Acro, …); assay: FACS blocking of PVRIG-mFc binding to CHO-K1-CD112 cells; competitor CD112
Summary of the method: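 After a further 30 min at 4° C with Zombie violet-stained CHO-K1-CD112 cells, binding was detected with PE goat anti-mouse IgG Fc (1:250) as mean fluorescence intensity on a BD Canto II. IC50 and curve AUC, taken from four-parameter logistic fits in GraphPad Prism, were expressed relative to a reference antibody as percentages.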

[5] = target: T1, human PVRIG (AcroBiosystems, Cat NO. …); assay: ELISA, coated human PVRIG; remark: listed apart in the source
Method: as §1, with “The smaller the EC50 value, the stronger the ability of the antibodies binds to human or cynomolgus monkey PVRIG.” left out

[6] = target: T2, cynomolgus monkey PVRIG (Novoprotein, …); assay: ELISA, coated cynomolgus PVRIG; remark: listed apart in the source
Method: as §1, with “The smaller the EC50 value, the stronger the ability of the antibodies binds to human or cynomolgus monkey PVRIG.” left out

[7] = target: T3, human PVRIG-mFc protein (Acro, …); assay: HTRF competition, PVRIG-mFc with Bio-CD112-His as competitor; remark: listed apart in the source
Method: as §2

% relative activity COM701-hIgG1/tested antibody [1] [%]	% relative activity PVRIG-A105-H1/tested antibody [1] [%]	EC50 [1] [nM]	% relative activity COM701-hIgG1/tested antibody [2] [%]	% relative activity PVRIG-A105-H1/tested antibody [2] [%]	EC50 [2] [nM]	% relative activity COM701-hIgG1/tested antibody [3] [%]	% relative activity PVRIG-A105-H1/tested antibody [3] [%]	IC50 [3] [nM]	% AUC to COM701-hIgG4 [4] [%]	% AUC to SO35-hIgG1 [4] [%]	% AUC to parental Ab [4] [%]	% IC50 to COM701-hIgG4 [4] [%]	% IC50 to SO35-hIgG1 [4] [%]	% IC50 to parental Ab [4] [%]	% relative activity COM701-hIgG1/tested antibody [5] [%]	% relative activity PVRIG-A50-H1b/tested antibody [5] [%]	EC50 [5] [nM]	% relative activity COM701-hIgG1/tested antibody [6] [%]	% relative activity PVRIG-A50-H1b/tested antibody [6] [%]	Binder	also measured
390	100	0.0636	152	100	0.0239	107	100	0.128	111	64.2	97.9	104	88.1	99.7	–	–	–	–	–	PVRIG-A105-H1 (Fc fusion, VHH-human IgG1 Fc format is stated for the parental VHH antibodies; not restated for the humanized variants; also called A105.VH1; not shown: human IgG1 hinge-CH2-CH3 (Fc)) EVQLVESGGGLVQPGGSLRLSCAASGRTFDRHTMSWFRQAPGKEREFVATASRIPGDTYYVDSVKGRFTISRDNAKNSLYLQMNSLRAEDTAVYYCAATSAYCSEVDCYEKGSWYDNWGQGTMVTVSS	–
–	–	–	–	–	–	–	–	–	104	61.6	85.5	95.2	73.7	81.4	65.4	100	0.379	95.5	100	PVRIG-A50-H1b (Fc fusion, VHH-human IgG1 Fc format is stated for the parental VHH antibodies; not restated for the humanized variants; also called A50.VH1b; not shown: human IgG1 hinge-CH2-CH3 (Fc)) EVQLVESGGGLVQPGGSLRLSCAASGFTFSYYDMSWVRQAPGKGLEWVSTINSDGGRTSYVDSVKGRFTISRDNSKNTLYLQMNSLRAEDTAVYYCVEGDPHNFGLESLSLRDFGSWGQGTMVTVSS	EC50 [6]: 0.038 nM; % relative activity COM701-hIgG1/tested antibody [7]: 66.7%; % relative activity PVRIG-A50-H1b/tested antibody [7]: 100%; IC50 [7]: 0.206 nM
100	25.6	0.248	100	66	0.0363	100	93.4	0.137	–	–	–	–	–	–	100	153	0.248	100	105	COM701-hIgG1 (antibody, V domains shown, Anti-PVRIG positive control) VH: QVQLVQSGAEVKKPGASVKVSCKASGYTFTDYNINWVRQAPGQGLEWMGYIYPYIGGSGYAQKFQGRVTMTRDTSTSTVYMELSSLRSEDTAVYYCAREDKTARNAMDYWGQGTLVTVSS VL: DIQMTQSPSSLSASVGDRVTITCRVSENIYSNLAWYQQKPGKAPKLLIYEATNLAEGVPSRFSGSGSGTDFTLTISSLQPEDFATYYCQHFWGTPYTFGQGTKLEIK	EC50 [6]: 0.0363 nM; % relative activity COM701-hIgG1/tested antibody [7]: 100%; % relative activity PVRIG-A50-H1b/tested antibody [7]: 150%; IC50 [7]: 0.137 nM

— US20240343803A1 (SHANDONG SIMCERE BIOPHARMACEUTICAL, published 2024)
